Results as given in US11110182B2, “Multifunctional RNA nanoparticles and methods for treating cancer and therapeutic resistant cancer” (University of Cincinnati, priority 2016, dated 2021).

Test system: MED1
Test: MED1 protein level by western blots in MDA-MB-231 cells
Assay type: cell-based, human
Settings: MDA-MB-231, transfected, 48 h
From the text: FIG. 8A) HER2 expression in BT474 and MDA-MB-231 cells determined by western blot analyses. FIG. 8B) The binding of AF-647-labeled pRNA-HER2apt-siMED1 and its mutant nanoparticles to MDA-MB-231 and BT474 cells examined by confocal microscopy. Green represents the immunofluorescent staining of HER2, and blue represents nuclear staining with DAPI. FIG. 8C) The internalization of AF647-labeled pRNA nanoparticles by MDA-MB-231 cells examined by confocal microscopy. Green represents the immunofluorescent staining of β-actin. Scale bar: 10 μm. FIG. 8D) The cellular uptake of AF647-labeled pRNA nanoparticles by MDA-MB-231 cells quantified by flow cytometry. FIG. 8E) HER2 expression in BT474 xenograft tumors was examined by western blot analyses. FIG. 8F) MDA-MB-231 cells were incubated directly with (as indicated by-) or transfected with pRNAs using lipofectamine 2000. At 48 h post treatment, MED1 protein levels were determined by western blots.
Cell culture. […] The hydrodynamic diameter and Tm value of pRNA nanoparticles were determined using dynamic light scattering and TGGE assay, respectively, as previously described.^54 The AFM imaging of the pRNA nanoparticles was performed at the University of Nebraska Medical Center imaging facility as previously reported.^55 Briefly, the pRNA nanoparticles (5 μL) were deposited on APS modified mica ^56 for a total of 2 min of incubation time. […]

B1: pRNA-HER2apt-siMED1: 3-WJ pRNA nanoparticle bearing a HER2-targeting RNA aptamer and two different MED1 siRNAs; strands p1 SEQ ID NO: 3, p2 SEQ ID NO: 4 (nucleic acid)
chain 1: GGACAGUGAAAGUGAGUCAAAGGAUCAAUCAUGGCCAAAGAUGUUACUUUGAGAGCCUU
chain 2: GGCUCUCAAAGUAACAUCUAAGGCCAUGUGUAUGUGGGGGGAGGACGAUGCGGUCUGCUGUGCUUGAUAUGCCCCAGACGACUCGCCCCCCACAUACUUUGUUGAUCCAAUGACUCACUUUCACUGUCCUU
modifications: 2'-F modification; third strand may lack entry; pRNA-HER2apt-siMED1, p1; pRNA-HER2apt-siMED1, p2
**Q.** B1 was tested. Which “MED1 protein level after transfection with lipofectamine 2000” value did it give?
**A.** Its value is “MED1 silencing”.

B2: pRNA-HER2apt^mut-siMED1: control pRNA nanoparticle with mutant HER2 aptamer; strands p1 SEQ ID NO: 5, p2 SEQ ID NO: 6 (nucleic acid)
chain 1: GGACAGUGAAAGUGAGUCAAAGGAUCAAUCAUGGCCAAAGAUGUUACUUUGAGAGCCUU
chain 2: GGCUCUCAAAGUAACAUCUAAGGCCAUGUGUAUGUGGGAUGAGGAGUAUGAAGAUACCUGUACUUGAUAUGCCCCAGACGACAUUCCCCCCACAUACUUUGUUGAUCCAAUGACUCACUUUCACUGUCCUU
modifications: pRNA-HER2apt(mut)-siMED1, p1; pRNA-HER2apt(mut)-siMED1, p2
**Q.** Which “MED1 protein level after transfection with lipofectamine 2000” value does the source give for B2 here?
**A.** Its value is “MED1 silencing”.
